Laboratory results reported in article PMC6152936 (Cell reports, 2018).

Molecular target: the molecule itself
Test: SAXS

B1: TFG N terminus (amino acids 1-138), wild type (domain or fragment, human, UniProt Q92734 1-138, looked up)
chain: MNGQLDLSGKLIIKAQLGEDIRRIPIHNEDITYDELVLMMQRVFRGKLLSNDEVTIKYKDEDGDLITIFDSSDLSFAIQCSRILKLTLFVNGQPRPLESSQVKYLRRELIELRNKVNRLLDSLEPPGEPGPSTNIPEN
  stoichiometry N: 8
